Measured values as given in patent publication US20110052564A1.

Assays:
[1] = target: misfolded dH5-III (H5 of A/Vietnam/1203/04, prolonged incubation at 5 C below the melting temperature) (influenza virus H5N1 strain A/Vietnam/1203/04); assay: ELISA epitope scanning, immobilized H5 form; scaled
[2] = target: misfolded dH5-I (H5 of A/Vietnam/1203/04, heat cycling at pH 7) (influenza virus H5N1 strain A/Vietnam/1203/04); assay: as above
[3] = target: cdH5-0, crossbeta H5 (A/Vietnam/1203/04) after centrifugation (influenza virus H5N1 strain A/Vietnam/1203/04); assay: as above
[4] = target: misfolded dH5-II (H5 of A/Vietnam/1203/04, heat cycling at pH 2) (influenza virus H5N1 strain A/Vietnam/1203/04); assay: as above
[5] = target: fdH5-0, ultrafiltrated dH5-0 (H5 of A/Vietnam/1203/04) (influenza virus H5N1 strain A/Vietnam/1203/04); assay: as above
[6] = target: crossbeta H5-0 (dH5-0), H5 of H5N1 strain A/Vietnam/1203/04 stock as supplied by Protein Sciences (influenza virus H5N1 strain A/Vietnam/1203/04); assay: as above
[7] = target: cdH5-0, crossbeta H5 (A/Vietnam/1203/04) after centrifugation (influenza virus H5N1 strain A/Vietnam/1203/04); assay: ELISA, immobilized H5 form, tPA with excess epsilon-amino caproic acid
[8] = target: misfolded dH5-II (H5 of A/Vietnam/1203/04, heat cycling at pH 2) (influenza virus H5N1 strain A/Vietnam/1203/04); assay: as above
[9] = target: fdH5-0, ultrafiltrated dH5-0 (H5 of A/Vietnam/1203/04) (influenza virus H5N1 strain A/Vietnam/1203/04); assay: as above
[10] = target: crossbeta H5-0 (dH5-0), H5 of H5N1 strain A/Vietnam/1203/04 stock as supplied by Protein Sciences (influenza virus H5N1 strain A/Vietnam/1203/04); assay: as above
[11] = target: non-treated H5 of H5N1 strain A/Vietnam/1203/04 (nH5), Protein Sciences (influenza virus H5N1 strain A/Vietnam/1203/04); assay: ELISA, coated nH5 overlayed with 1:2000 diluted antibody
[12] = target: crossbeta H5-0 (dH5-0), H5 of H5N1 strain A/Vietnam/1203/04 stock as supplied by Protein Sciences (influenza virus H5N1 strain A/Vietnam/1203/04); assay: ELISA, immobilized H5 form; normalized to cdH5-0; average of two measurements
[13] = target: misfolded dH5-III (H5 of A/Vietnam/1203/04, prolonged incubation at 5 C below the melting temperature) (influenza virus H5N1 strain A/Vietnam/1203/04); assay: ELISA, immobilized H5 form; normalized to cdH5-0
[14] = target: misfolded dH5-I (H5 of A/Vietnam/1203/04, heat cycling at pH 7) (influenza virus H5N1 strain A/Vietnam/1203/04); assay: ELISA, immobilized H5 form; normalized to cdH5-0
[15] = target: cdH5-0, crossbeta H5 (A/Vietnam/1203/04) after centrifugation (influenza virus H5N1 strain A/Vietnam/1203/04); assay: ELISA, immobilized H5 form; normalized to cdH5-0
[16] = target: misfolded dH5-II (H5 of A/Vietnam/1203/04, heat cycling at pH 2) (influenza virus H5N1 strain A/Vietnam/1203/04); assay: ELISA, immobilized H5 form; normalized to cdH5-0
[17] = target: fdH5-0, ultrafiltrated dH5-0 (H5 of A/Vietnam/1203/04) (influenza virus H5N1 strain A/Vietnam/1203/04); assay: ELISA, immobilized H5 form; normalized to cdH5-0

With “Rockland anti-H5 A/VN/1203/04 mouse monoclonal antibody, catalogue number 200-301-979” the relative affinity kD [1] was 126 a.u, the relative affinity kD [2] was 125 a.u and the relative affinity kD [3] was 100 a.u. It also gave a relative affinity kD [4] of 83 a.u, a relative affinity kD [5] of 97 a.u and a relative affinity kD [6] of 103 a.u.
“tissue type plasminogen activator (tPA; Actilyse, Boehringer-Ingelheim) (from UniProt P00750 36-562) (enzyme)” gave a Kd [7] of 102 nM, a Kd [8] of 19 nM and a Kd [9] of 342 nM. The Kd [10] was 96 nM.
“Rockland anti-H5 A/VN/1203/04 mouse monoclonal antibody, catalogue number 200-301-976” was tested, and the relative affinity kD [1] was 127 a.u, the relative affinity kD [2] was 0 a.u and the relative affinity kD [3] was 100 a.u. For the same substance, the relative affinity kD [4] was 132 a.u, the relative affinity kD [5] was 105 a.u and the relative affinity kD [6] was 88 a.u.
“Rockland anti-H5 A/VN/1203/04 mouse monoclonal antibody, catalogue number 200-301-975” showed an ELISA signal at 1:2000 antibody dilution [11] of 1.5, a relative affinity kD [1] of 78 a.u and a relative affinity kD [2] of 47 a.u. The relative affinity kD [3] was 100 a.u, the relative affinity kD [4] was 79 a.u and the relative affinity kD [5] was 103 a.u. It also gave a relative affinity kD [6] of 102 a.u.
“fourth and fifth finger domain of fibronectin (Fn F4-5) with C-terminal FLAG-tag (from UniProt P02751 184-273)” showed a Normalized affinity, kD (%) [12] of 103%, a Normalized affinity, kD (%) [13] of 6% and a Normalized affinity, kD (%) [14] of 0%. For the same substance, the Normalized affinity, kD (%) [15] was 100%, the Normalized affinity, kD (%) [16] was 88% and the Normalized affinity, kD (%) [17] was 69%.
Work on “Rockland anti-H5 A/VN/1203/04 mouse monoclonal antibody, catalogue number 200-301-978” yielded a relative affinity kD [1] of 112 a.u, a relative affinity kD [2] of 115 a.u and a relative affinity kD [3] of 100 a.u. It also gave a relative affinity kD [4] of 31 a.u, a relative affinity kD [5] of 107 a.u and a relative affinity kD [6] of 85 a.u.
For “Rockland anti-H5 A/VN/1203/04 mouse monoclonal antibody, catalogue number 200-301-977”, the relative affinity kD [1] was 35 a.u, the relative affinity kD [2] was 0 a.u and the relative affinity kD [3] was 100 a.u. It also gave a relative affinity kD [4] of 0 a.u, a relative affinity kD [5] of 93 a.u and a relative affinity kD [6] of 98 a.u.
